In patent publication US20160223554A1, “METHODS FOR DIAGNOSIS, PROGNOSIS AND METHODS OF TREATMENT” (priority 2011, published 2016):

Tests used:
Type in all cases: cell-based, human
AML blasts [1] = assay: SCNP signaling and apoptosis nodes in AML BMMC (Example 4, Study No. 2)
AML blasts [2] = assay: SCNP phospho-flow signaling nodes in AML PBMC (Example 2, Study No. 1); conditions: for Mean Value of CRs: CR patients; for Mean Value of CRs / Mean Value of NRs: Study No. 1; for Mean Value of NRs: NR patients
Protocol: Frozen cells are thawed in a 37° C. water bath and gently resuspended in the vial and transferred to the 15 mL conical tube. The 15 mL tube is centrifuged at 930 RPM (200×g) for 8 minutes at room temperature. The supernatant is aspirated and the pellet is gently resuspended in 1 mL media A. The cell suspension is filtered through a 70 um cell strainer into a new 15 mL tube. The cell strainer is rinsed with 1 mL media A and another 12 ml of media A into the 15 mL tube. The cells are mixed into an even suspension. A 20 μL aliquot is immediately removed into a 96-well plate containing 180 μL PBS+4% FBS+CD45 Alexa 700+PI to determine cell count and viability post spin. After the determination, the 15 mL tubes are centrifuged at 930 RPM (200×g) for 8 minutes at room temperature. The supernatant is aspirated and the cell pellet is gently resuspended in 4 mL PBS+4 μL Amine Aqua and incubated for 15 min in a 37° C. incubator. 10 mL RPMI+1% FBS is added to the cell suspension and the tube is inverted to mix the cells. The 15 mL tubes are centrifuged at 930 RPM (200×g) for 8 minutes at room temperature. The cells are resuspended in Media A at the desired cell concentration (1.25×10^6/mL). For samples with low numbers of cells (<18.5×10^6), the cells are resuspended in up to 15 mL media. For samples with high numbers of cells (>18.5×10^6), the volume is raised to 10 mL with media A and the desired volume is transferred to a new 15 mL tube, and the cell concentration is adjusted to 1.25×10^6 cells/ml. 1.6 mL of the above cell suspension (concentration at 1.25×10^6 cells/ml) is transferred into wells of a multi-well plate. From this plate, 80 ul is dispensed into each well of a subsequent plate. The plates are covered with a lid (Nunc) and placed in a 37° C. incubator for 2 hours to rest.
A concentration for each stimulant that is five folds more (5×) than the final concentration is prepared using Media A as diluent. 5× stimuli are arrayed into wells of a standard 96 well v-bottom plate that correspond to the wells on the plate with cells to be stimulated.
Adding the stimulant: The cell plate(s) are taken out of the incubator and placed in a 37° C. water bath next to the pipette apparatus. The cell plate is taken from the water bath and gently swirled to resuspend any settled cells. With pipettor, the stimulant is dispensed into the cell plate and vortexed at “7” for 5 seconds. The deep well plate is put back into the water bath.
The plate is covered with foil sealer and incubated in a 37° C. water bath for 10 minutes. The plate is spun for 6 minutes at 2000 rpm at room temperature. The cells are aspirated using a 96 well plate aspirator (VP Scientific). The plate is vortexed to resuspend cell pellets in the residual volume. The pellet is ensured to be dispersed before the Methanol step (see cell permeabilization) or clumping will occur.
Cell Permeabilization: Permeability agent, for example methanol, is added slowly and while the plate is vortexing. To do this, the cell plate is placed on titer plate shaker and made sure it is secure. The plate is set to shake using the highest setting. A pipetter is used to add 0.6 mls of 100% methanol to the plate wells. The plate(s) are put on ice until this step has been completed for all plates. Plates are covered with a foil seal using the plate roller to achieve a tight fit. At this stage the plates can be stored at −80° C.
Cells are thawed if frozen. Cells are pelleted at 2000 rpm 5 minutes. Supernatant is aspirated with vacuum aspirator. Plate is vortexed on a “plate vortex” for 5-10 seconds. Cells are washed with 1 mL FACS buffer. Repeat the spin, aspirate and vortex steps as above. 50 μL of FACS/stain buffer with the desired, previously optimized, antibody cocktail is added to two rows of cells at a time and agitate the plate. The plate is covered and incubated in a shaker for 30 minutes at room temperature (RT). During this incubation, the compensation plate is prepared.

AML blasts [3] = assay: In vitro drug-induced apoptosis (c-PARP, amine aqua) in primary AML samples (Example 20); conditions: sample COG-06, resistant to Ara-C/Dauno and GO; co-treatment with GO
Protocol: (§1) Cryopreserved peripheral blood (PBMC) or bone marrow (BMMC) mononuclear cells were obtained from patients with a new diagnosis of AML treated at British Columbia Cancer Agency or Lucile Packard Children's Hospital at Stanford University. All patients provided informed consent for research purposes. Samples were processed (thawed, modulated, fixed, permeabilized, and incubated with antibodies to both surface and intracellular proteins) as previously described (Kornblau, Minden et al., Dynamic single-cell network profiles in acute myelogenous leukemia are associated with patient response to standard induction therapy, 2010, Journal/Clin Cancer Res, 16, 14, 3721-3733; Rosen, Minden et al., Functional characterization of FLT3 receptor signaling deregulation in acute myeloid leukemia by single cell network profiling (SCNP), 2010, Journal/PLoS One, 5, 10, e13543). In this study, cellular DNA damage repair (DDR) and apoptosis were measured simultaneously in AML blasts after exposure to chemotherapeutic agents. Antibodies against phosphorylated (p)-H2AX or p-Chk2 were used to measure the DDR to DSB, while simultaneous measurements of cleaved PARP (c-PARP) and amine aqua viability dye were used to quantify apoptosis and cell death. Chemotherapeutics included Ara-C/Dauno (the two drugs currently used in standard AML induction therapy), Gemtuzumab Ozogamicin (GO), and three other agents currently being evaluated in AML clinical trials [Decitabine (DEC), 5-azacytidine (AZA) and Clofarabine (CLO)]. […] Drug-specific incubation times were chosen to analyze both DDR and apoptosis readouts: Ara-C/Dauno (24 hours), GO, CLO, AZA, DEC (48 hours). […] Similarly, apoptosis responses were not observed for DEC until 48 hours and were higher for AZA at 48 hours (data not shown). PI3Kinase/Akt and Raf/Ras pathway activities were assessed using stem cell factor (SCF) induced p-Akt and p-Erk readouts. Data was acquired on an LSRII flow cytometer and leukemic cells were identified by CD45 versus right-angle light-scatter. Metrics for DDR (Log2Fold) and induced apoptosis have been described previously (Rosen, Putta et al., Distinct patterns of DNA damage response and apoptosis correlate with Jak/Stat and PI3kinase response profiles in human acute myelogenous leukemia, 2010, Journal/PLoS One, 5, 8, e12405).

AML blasts [4] = assay: DNA damage response (p-H2AX, p-Chk2) to chemotherapeutics in primary AML samples (Example 20); conditions: primary AML samples
Protocol: as §1

[5] = Fold metric, all patients, Study No. 2
[6] = Fold metric, Study No. 1, CRp patient included in NR group
[7] = Study No.2, patients less than 60 years old
[8] = Study No.2, patients with De Novo AML
[9] = Total Phospho metric, Study No. 1, CRp patient included in NR group
[10] = read-out p-Stat3, metric TotalPhospho

Molecule: CCCCCCCCCCCCCC(=O)O[C@@H]1[C@@H](C)[C@@]2(O)[C@@H](C=C(CO)C[C@]3(O)C(=O)C(C)=C[C@@H]23)[C@@H]2C(C)(C)[C@]12OC(C)=O [PMA, reference compound]
- Mean Value of CRs, p-Erk (AML blasts [1]; [5]): 2.82
- Mean Value of NRs, p-Erk (AML blasts [1]; [5]): 1.74
- Mean Value of NRs, p-Erk (AML blasts [2]; [6]): 2.03

Molecule: C/C=C/C[C@@H](C)C(=O)[C@H]1C(=O)N[C@@H](C(C)C)C(=O)N(C)CC(=O)N(C)[C@@H](CC(C)C)C(=O)N[C@@H](C(C)C)C(=O)N(C)[C@@H](CC(C)C)C(=O)N[C@@H](C)C(=O)N[C@H](C)C(=O)N(C)[C@@H](CC(C)C)C(=O)N(C)[C@@H](CC(C)C)C(=O)N(C)[C@@H](C(C)C)C(=O)N1C [PSC833]
- effect of co-treatment on GO-induced apoptosis (AML blasts [3]): substantially sensitized the leukemic cells to GO-induced apoptosis

Molecule: GO: recombinant humanized IgG4, kappa antibody conjugated with a cytotoxic antitumor antibiotic, calicheamicin
- timing of induced DNA damage (pH2AX) relative to apoptosis (AML blasts [4]): before apoptosis

B1: IFNg: cytokine modulator of Jak/Stat pathway (protein, UniProt P01579 24-161, looked up)
Interferon gamma: QDPYVKEAENLKKYFNAGHSDVADNGTLFLGILKNWKEESDRKIMQSQIVSFYFKLFKNFKDDQSIQKSVETIKEDMNVKFFNSNKKKRDDFEKLTNYSVTDLNVQRKAIHELIQVMAELSPAAKTGKRKRSQMLFRG
- Mean Value of CRs, p-Stag (AML blasts [1]; [5]): −0.02
- Mean Value of NRs, p-Stag (AML blasts [1]; [5]): 0.2
- Mean Value of CRs, p-Stat1 Fold (AML blasts [1]; [7]): 1.35
- Mean Value of CRs, p-Stat1 TotalPhospho (AML blasts [1]; [7]): 2.40
- Mean Value of CRs, p-Stat3 TotalPhospho (AML blasts [1]; [7]): 1.60
- Mean Value of CRs, p-Stat5 Fold (AML blasts [1]; [7]): 0.68
- Mean Value of NRs, p-Stat1 Fold (AML blasts [1]; [7]): 2.96
- Mean Value of NRs, p-Stat1 TotalPhospho (AML blasts [1]; [7]): 4.13
- Mean Value of NRs, p-Stat3 TotalPhospho (AML blasts [1]; [7]): 2.71
- Mean Value of NRs, p-Stat5 Fold (AML blasts [1]; [7]): 1.67
- Mean Value of CRs, p-Stat3 Fold (AML blasts [1]; [8]): −0.04
- Mean Value of CRs, p-Stat3 TotalPhospho (AML blasts [1]; [8]): 1.59
- Mean Value of NRs, p-Stat3 Fold (AML blasts [1]; [8]): 0.24
- Mean Value of NRs, p-Stat3 TotalPhospho (AML blasts [1]; [8]): 2.48
- Mean Value of CRs, p-Stat1 (AML blasts [2]; [6]): 0.45
- Mean Value of NRs, p-Stat1 (AML blasts [2]; [6]): 0.91
- Mean Value of CRs, p-Stat1 (AML blasts [2]; [9]): 0.67
- Mean Value of CRs, p-Stat3 (AML blasts [2]; [9]): 0.68
- Mean Value of CRs, p-Stat5 (AML blasts [2]; [9]): 1.62
- Mean Value of NRs, p-Stat1 (AML blasts [2]; [9]): 1.27
- Mean Value of NRs, p-Stat3 (AML blasts [2]; [9]): 1.3
- Mean Value of NRs, p-Stat5 (AML blasts [2]; [9]): 2.35
- Mean Value of CRs (AML blasts [2]; read-out p-Stat1, metric Fold): 0.53
- Mean Value of NRs (AML blasts [2]; read-out p-Stat1, metric Fold): 0.90
- Mean Value of CRs (AML blasts [2]; [10]): 0.74
- Mean Value of NRs (AML blasts [2]; [10]): 1.30
